Molecular target: microtubules (polymers of α/β-tubulin) of the co-sedimentation and negative-stain EM experiments
Experiment: co-sedimentation

microtubules (polymers of α/β-tubulin) of the co-sedimentation and negative-stain EM experiments, sequence (P68363 whole entry, chain 1 of 2): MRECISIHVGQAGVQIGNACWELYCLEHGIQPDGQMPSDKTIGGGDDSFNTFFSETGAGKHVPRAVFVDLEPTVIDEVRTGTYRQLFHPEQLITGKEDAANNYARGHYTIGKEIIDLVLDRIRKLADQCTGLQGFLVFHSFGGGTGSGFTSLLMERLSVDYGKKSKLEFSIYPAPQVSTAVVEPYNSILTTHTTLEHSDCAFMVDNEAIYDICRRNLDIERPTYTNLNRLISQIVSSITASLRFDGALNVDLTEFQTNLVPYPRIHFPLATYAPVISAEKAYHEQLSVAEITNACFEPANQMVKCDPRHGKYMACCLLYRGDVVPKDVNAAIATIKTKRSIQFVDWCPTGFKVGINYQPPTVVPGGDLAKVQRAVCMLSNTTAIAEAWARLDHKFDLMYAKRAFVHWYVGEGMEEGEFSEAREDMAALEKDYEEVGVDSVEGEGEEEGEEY
microtubules (polymers of α/β-tubulin) of the co-sedimentation and negative-stain EM experiments, sequence (A8K068 whole entry, chain 2 of 2, further chain): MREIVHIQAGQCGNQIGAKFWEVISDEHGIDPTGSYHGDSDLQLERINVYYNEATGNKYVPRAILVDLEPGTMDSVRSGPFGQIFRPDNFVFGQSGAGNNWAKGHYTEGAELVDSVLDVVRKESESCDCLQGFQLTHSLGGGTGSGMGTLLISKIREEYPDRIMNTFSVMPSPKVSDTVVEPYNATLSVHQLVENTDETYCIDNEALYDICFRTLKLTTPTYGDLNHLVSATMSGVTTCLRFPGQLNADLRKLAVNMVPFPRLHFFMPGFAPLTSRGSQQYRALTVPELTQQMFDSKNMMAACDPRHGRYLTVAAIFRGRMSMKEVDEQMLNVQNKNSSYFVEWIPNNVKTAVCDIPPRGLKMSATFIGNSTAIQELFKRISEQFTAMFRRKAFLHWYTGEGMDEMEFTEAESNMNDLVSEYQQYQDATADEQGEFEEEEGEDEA

B1: Hice1-MTBR (Hice1 microtubule-binding region, a.a. 1–141), Q9BT25 1-141 (domain or fragment)
chain: MADSSGRGAGKPATGPTNSSSAKKKDKRVQGGRVIESRYLQYEKKTTQKAPAGDGSQTRGKMSEGGRKSSLLQKSKADSSGVGKGDLQSTLLEGHGTAPPDLDLSAINDKSIVKKTPQLAKTISKKPESTSFSAPRKKSPD
- Kd: 9.33 µM
